One may read the Ki as the equilibrium dissociation constant of an inhibitor or competing ligand from its target. A low value points to a stronger hold on the target. As a reminder, the IC50 is the concentration needed to halve the response being measured.

Assay [1] has as its target T1, chemokine receptor 5 (CCR5; AC P51681) (human, UniProt P51681 1-352). Put plainly: cell-based or functional assay.
In assay [2] the target is T2, chemokine receptor CCR1 (human, UniProt P32246 1-355).
T2 construct: whole, on cells
T2 sequence (looked up): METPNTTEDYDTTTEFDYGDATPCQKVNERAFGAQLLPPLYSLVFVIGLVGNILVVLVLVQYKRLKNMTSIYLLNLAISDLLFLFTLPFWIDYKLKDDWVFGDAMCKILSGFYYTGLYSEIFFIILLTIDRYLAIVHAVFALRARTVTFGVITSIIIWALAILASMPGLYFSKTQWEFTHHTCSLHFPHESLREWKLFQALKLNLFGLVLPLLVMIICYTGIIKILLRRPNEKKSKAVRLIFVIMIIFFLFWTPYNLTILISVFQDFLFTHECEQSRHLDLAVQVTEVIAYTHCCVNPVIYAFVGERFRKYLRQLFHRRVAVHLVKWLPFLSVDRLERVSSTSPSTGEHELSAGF
Put plainly: radioligand competition binding on CCR1. In general terms: Displacement assays read how much labelled ligand stays bound in the presence of the test substance.

Assay [3] deals with T2, chemokine receptor CCR1. Put plainly: cell-based or functional assay.
Assay [4] concerns the target T3, chemokine receptor CCR3 (human, UniProt P51677 1-355).
T3 sequence (looked up): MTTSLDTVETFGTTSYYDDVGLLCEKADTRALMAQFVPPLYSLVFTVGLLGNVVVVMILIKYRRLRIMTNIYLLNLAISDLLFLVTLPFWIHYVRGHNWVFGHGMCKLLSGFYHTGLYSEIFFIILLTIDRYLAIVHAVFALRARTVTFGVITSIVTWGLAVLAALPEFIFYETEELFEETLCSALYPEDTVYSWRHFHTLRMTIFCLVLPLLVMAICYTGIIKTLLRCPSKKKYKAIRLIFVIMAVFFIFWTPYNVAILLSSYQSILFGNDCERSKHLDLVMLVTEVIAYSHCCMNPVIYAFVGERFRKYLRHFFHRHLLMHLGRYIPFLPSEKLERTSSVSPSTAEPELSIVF
Put plainly: cell-based or functional assay.

For assay [5], the target named is T2, chemokine receptor CCR1. Put plainly: radioligand competition, 125I-Rantes tracer on CCR1.
Assay [6] addresses T3, chemokine receptor CCR3. Put plainly: radioligand competition, 125I-Eotaxin tracer on CCR3.
Assay [7] has as its target T1, chemokine receptor 5 (CCR5; AC P51681). Put plainly: radioligand competition, 125I-MIP 1-alpha tracer on CCR5.
Assay [8] concerns the target T2, chemokine receptor CCR1. Put plainly: radioligand competition, 0.1 nM 125I-Rantes tracer, membranes of CHO-K1 cells expressing CCR1.
Assay [9] has as its target T3, chemokine receptor CCR3. Put plainly: radioligand competition, 0.1 nM 125I-Eotaxin tracer, membranes of CHO-K1 cells expressing CCR3.
Assay [10] concerns the target T1, chemokine receptor 5 (CCR5; AC P51681). Put plainly: radioligand competition, 0.1 nM 125I-MIP 1-alpha tracer, membranes of CHO-K1 cells expressing CCR5.

T1 sequence (P51681 whole entry, one chain of several): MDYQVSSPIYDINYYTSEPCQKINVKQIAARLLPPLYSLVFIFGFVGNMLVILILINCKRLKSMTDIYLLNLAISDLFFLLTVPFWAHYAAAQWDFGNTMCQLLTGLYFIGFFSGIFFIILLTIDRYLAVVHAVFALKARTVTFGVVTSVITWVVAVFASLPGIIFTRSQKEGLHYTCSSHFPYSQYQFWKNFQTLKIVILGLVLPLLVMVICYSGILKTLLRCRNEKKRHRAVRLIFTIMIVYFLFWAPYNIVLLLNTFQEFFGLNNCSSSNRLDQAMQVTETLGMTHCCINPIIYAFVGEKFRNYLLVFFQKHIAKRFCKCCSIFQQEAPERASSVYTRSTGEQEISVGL

B1: MIP 1-alpha (ligand, UniProt P10147 24-92, looked up)
chain: SLAADTPTACCFSYTSRQIPQNFIADYFETSSQCSKPGVIFLTKRSRQVCADPSEEWVQKYVSDLELSA
modifications: also: 125I-labelled as tracer, position not given here
In the case of B1, the “Aequorin assay, activation of CCR5 transfected CHO-K1 cells, EC50” value (from here on “Aequorin assay, activation”) in assay [1] turned out to be 3.3 nM.

B2: full size HCC-1 (HCC-1, residues 1-74) (ligand)
chain: TKTESSSRGPYHPSECCFTYTTYKIPRQRIMDYYETNSQCSKPGIVFITKRGHSVCTNPSDKWVQDYIKDMKEN
notes: also called full-length HCC-1; HCC-1, 1-74
In the case of B2, the Ki in the assay with chemokine receptor CCR1 [2] turned out to be 100 nM.

B3: processed chemokine PHC-1 (HCC-1, residues 9-74) (ligand)
chain: GPYHPSECCFTYTTYKIPRQRIMDYYETNSQCSKPGIVFITKRGHSVCTNPSDKWVQDYIKDMKEN
notes: also called HCC-1[9-74]
On to B3, for which the “Aequorin assay, EC50” value in the assay with chemokine receptor CCR1 [3] was found to be 2.8 nM; with chemokine receptor CCR3 [4], 78 nM. The “Aequorin assay, activation” value in assay [1] is 4.8 nM. Also, the inhibition constant (Ki) stood at 0.023 nM with chemokine receptor CCR1 [5], 2.7 nM with chemokine receptor CCR3 [6] and 0.04 nM in assay [7]. Also, the IC50 in the assay with chemokine receptor CCR1 [8] is 2.3 nM; in the assay with chemokine receptor CCR3 [9], 78 nM; in [10] it was 0.04 nM.

B4: RANTES (ligand, UniProt P13501 24-91, looked up)
chain: SPYSSDTTPCCFAYIARPLPRAHIKEYFYTSGKCSNPAVVFVTRKNRQVCANPEKKWVREYINSLEMS
modifications: also: 125I-labelled as tracer, position not given here
With B4, in the assay with chemokine receptor CCR1 [3], the “Aequorin assay, EC50” value stood at 6.3 nM. In addition, the “Aequorin assay, activation” value in assay [1] was determined as 2.4 nM.

Values taken from patent publication EP1224288B1 (Pharis Biotec GmbH, dated 2006).
